The target of one test is T1, PKN (Rattus norvegicus, UniProt Q63433).
T1 construct: The purified PKN (1 ng) from rat testis cytosol; from tissue; host or cells: rat testis (cytosol / soluble fraction)
Kind of test: Phosphorylation of recombinant GST-NF domains by PKN. Format: biochemical. The conditions noted are these: GST-head-rod domain of each NF subunit. The procedure:
(§1) Soluble cytosolic extract of spinal cord or purified NF proteins were boiled for 5 min to destroy endogenous protein kinase activity prior to their use as phosphate acceptors. The phosphorylation of NF preparations was carried out at 30° C. in an assay mixture containing 20 mM Tris/HCl at pH 7.5, 8 mM MgCl2, 100 μM ATP, 185 kBq of [γ-^32P]ATP, each subunit of NF, 20 ng/ml of purified PKN from rat testis, and with/without 40 μM arachidonic acid as indicated in each experiment. Reactions were terminated after various times by the addition of an equal volume of Laemli's sample buffer, and separation was performed on 7% SDS-PAGE. The gels were dried under vacuum and exposure to BAS1000 bio-imaging analyzer. Dephosphorylation of NF proteins was conducted with calf intestine alkaline phosphatase according to a method described in Carden, M. J. et al., J. Biol. Chem. 260, 9805-9817 (1985) and terminated after boiling for 5 min.
(2) Phosphorylation of Recombinant NF by PKN To identify the region containing the phosphorylation site of NF by PKN, GST-head-rod and -tail domain of each subunit of NFs were bacterially synthesized (Example 8), and subjected to in vitro phosphorylation assay in the same manner as described above. […] The GST-tail domain of each subunit was not labeled at all. PKN also phosphorylated the GST-head-rod domain of vimentin (data not shown).

Test [1] addresses T2, purified PKN from rat testis (Rattus norvegicus, UniProt Q63433).
T2 construct: The purified PKN (1 ng) from rat testis cytosol; from tissue; host or cells: rat testis (cytosol / soluble fraction)
The test can be described thus: Phosphorylation of native NF by PKN. Type of test: biochemical. The conditions noted are these: native bovine NF, with arachidonic acid; estimated by image quant. The procedure: Native NFs were prepared from bovine spinal cords according to a method described in Hisanaga, S. & Hirokawa, N., J. Mol. Biol. 202, 297-305 (1988). Kinase assay was carried out according to the following method.
as §1

Another test deals with T3, RhoA^Val14 CLVL^− (Homo sapiens, UniProt P61586, G14V).
T3 construct: expressed in transfected cells; host or cells: yeast strain L40
T3 sequence (P61586 1-189 G14V): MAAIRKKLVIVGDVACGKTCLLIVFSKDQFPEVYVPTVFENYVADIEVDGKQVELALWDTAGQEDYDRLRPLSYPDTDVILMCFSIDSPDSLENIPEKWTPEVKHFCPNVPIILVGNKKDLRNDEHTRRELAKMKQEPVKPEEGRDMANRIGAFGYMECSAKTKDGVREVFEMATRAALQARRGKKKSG
Kind of test: Yeast two-hybrid, truncated PKN with RhoA^Val14CLVL^−. Type of test: binding. The conditions noted are these: yeast L40. An excerpt:
The cDNA fragments encoding various length of human PKN were inserted into the vector pBTM116 (Example 7) in frame with the upstream LexA DNA-binding domain sequences or the vector pVP16 (Example 7) in frame with the upstream VP16 transcription activation domain sequences. The cDNA fragments encoding human RhoA, RhoA^Val14, and RhoA^Ala37 were obtained by digesting pGEX-RhoA, pGEX-RhoA^Val14, and pGEX-RhoA^Ala37 (Example 1) with restriction enzymes, respectively, then cloned into pBTM116 and pVP16.
The expression plasmids were transfected into yeast L40 cells and plated on semi-solid media lacking tryptophan and leucine. Interaction was examined using a filter lift assay for the β-galactosidase activity in the same manner as in Example 6. […]

Test [2] deals with T4, in vitro translated PKNN2 (Homo sapiens, UniProt Q16512).
T4 construct: made in house; host or cells: in vitro translation in rabbit reticulocyte lysate (Promega)
T4 sequence (Q16512 1-474): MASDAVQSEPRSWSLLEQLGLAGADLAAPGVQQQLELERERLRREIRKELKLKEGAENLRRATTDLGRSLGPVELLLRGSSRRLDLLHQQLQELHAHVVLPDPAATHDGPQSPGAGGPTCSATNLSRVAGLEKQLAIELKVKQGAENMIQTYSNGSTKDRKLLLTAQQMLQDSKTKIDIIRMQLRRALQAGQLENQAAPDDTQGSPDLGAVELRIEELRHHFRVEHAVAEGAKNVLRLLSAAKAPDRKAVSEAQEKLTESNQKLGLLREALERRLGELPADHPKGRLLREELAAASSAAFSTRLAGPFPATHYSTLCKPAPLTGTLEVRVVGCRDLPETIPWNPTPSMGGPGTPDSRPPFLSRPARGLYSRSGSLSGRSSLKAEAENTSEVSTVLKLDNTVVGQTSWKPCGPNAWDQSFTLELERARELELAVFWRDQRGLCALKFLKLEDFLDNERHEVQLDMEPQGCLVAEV
Kind of test: In vitro binding of GST-HuActSkl fragments to PKNN2. The conditions noted are these: resistant to 0.5% Triton X-100/0.5 M NaCl wash. The method, then:
In vitro transcription for the N-terminal region of PKN (the amino acid sequence 1-474, this region being designated as PKNN2 (Example 8)) was performed as described in Example 8. For in vitro translation, cRNAs were translated in rabbit reticulocyte lysate (Promega) in the presence of [^35S] methionine as described in Example 8.
For in vitro binding experiment, 2 μl of in vitro translated PKNN2 was mixed with 5 μg of each GST-α-actinin fusion protein or with 25 μg of GST alone in 400 μl of GST binding buffer (20 mM Tris/HCl at pH 7.5, 0.5 mM DTT, 150 mM NaCl, 0.05% Triton-X100, 1 mM EDTA, 1 μg/ml leupeptin) and incubated for 1 hr at 4° C. After addition of 25 μl of glutathione-Sepharose 4B pretreated with 10 mg/ml of E. coli extract to block nonspecific binding, the binding reaction was continued for additional 30 min at 4° C. The glutathione-Sepharose 4B was then washed four times in GST washing buffer (20 mM Tris/HCl at pH 7.5, 0.5 mM DTT, 1 mM EDTA, 1 μg/ml leupeptin) containing 0.5 M NaCl and 0.5% Triton X-100, and further washed with GST washing buffer. Bound proteins were eluted with GST elution buffer (100 mM Tris/HCl at pH 7.5, 10 mM glutathione, 120 mM NaCl, 1 mM EDTA, 0.5 mM DTT, 1 μg/ml leupeptin) and were subjected to SDS-PAGE. The binding was visualized and quantitated by an imaging analyzer (FUJI BAS1000).

T2 sequence (Q63433 whole entry): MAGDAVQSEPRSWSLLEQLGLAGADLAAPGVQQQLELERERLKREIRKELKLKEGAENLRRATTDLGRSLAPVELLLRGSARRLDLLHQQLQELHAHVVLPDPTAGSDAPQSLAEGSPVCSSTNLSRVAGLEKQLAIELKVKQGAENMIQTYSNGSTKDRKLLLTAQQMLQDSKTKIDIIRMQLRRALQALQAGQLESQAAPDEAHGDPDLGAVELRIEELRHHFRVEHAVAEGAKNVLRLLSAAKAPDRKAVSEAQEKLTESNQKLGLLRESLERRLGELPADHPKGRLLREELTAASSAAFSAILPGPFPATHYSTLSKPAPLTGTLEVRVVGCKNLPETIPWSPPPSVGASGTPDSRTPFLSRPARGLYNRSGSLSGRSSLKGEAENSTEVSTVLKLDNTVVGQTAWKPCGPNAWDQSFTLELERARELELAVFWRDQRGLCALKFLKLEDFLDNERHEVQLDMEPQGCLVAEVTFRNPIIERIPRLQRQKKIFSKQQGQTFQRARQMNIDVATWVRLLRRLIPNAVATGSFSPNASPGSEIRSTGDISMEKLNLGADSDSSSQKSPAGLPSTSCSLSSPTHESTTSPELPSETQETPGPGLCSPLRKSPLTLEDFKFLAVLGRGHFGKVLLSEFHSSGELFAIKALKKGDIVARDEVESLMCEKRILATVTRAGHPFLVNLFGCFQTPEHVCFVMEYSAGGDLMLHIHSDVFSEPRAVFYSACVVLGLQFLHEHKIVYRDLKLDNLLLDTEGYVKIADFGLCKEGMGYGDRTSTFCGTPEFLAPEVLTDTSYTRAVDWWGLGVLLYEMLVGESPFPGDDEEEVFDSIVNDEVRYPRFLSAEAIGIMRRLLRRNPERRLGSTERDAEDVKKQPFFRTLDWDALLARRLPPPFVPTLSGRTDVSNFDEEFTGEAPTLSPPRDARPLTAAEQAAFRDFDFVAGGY
T1 sequence (Q63433 whole entry): as above

B1: NFM: neurofilament subunit M; native bovine in b342, GST-head-rod domain fusion in b344 (protein, UniProt O77788 2-926, looked up)
Neurofilament medium …: SYTLDSLGNPSAYRRVTETRSSFSRISGSPSSGFRSQSWSRGSPSTVSSSYKRSALAPRLTYSSAMLSSAESSLDFSQSSSLLDGGSGPGGDYKLSRSNEKEQIQGLNDRFAGYIEKVHYLEQQNKEIEAEIQALRQKQASHAQLGDAYDQEIRELRATLEMVNHEKAQVQLDSDHLEEDIHRLKERFEEEARLRDDTEAAIRALRKDIEESSLVKVELDKKVQSLQDEVAFLRSNHEEEVADLLAQIQASHITVERKDYLKTDISTALKEIRSQLESHSDQNMHQAEEWFKCRYAKLTEAAEQNKEAIRSAKEEIAEYRRQLQSKSIELESVRGTKESLERQLSDIEERHNHDLSSYQDTIQQLENELRGTKWEMARHLREYQDLLNVKMALDIEIAAYRKLLEGEETRFSTFAGSITGPLYTHRQPSIAISSKIQKTKVEAPKLKVQHKFVEEIIEETKVEDEKSEMEEALTAITEELAVSVKEEVKEEEAEEKEEKEEAEEEVVAAKKSPVKATAPELKEEEGEKEEEEGQEEEEEEEEAAKSDQAEEGGSEKEGSSEKEEGEQEEEGETEAEGEGEEAAAEAKEEKKMEEKAEEVAPKEELAAEAKVEKPEKAKSPVAKSPTTKSPTAKSPEAKSPEAKSPTAKSPTAKSPVAKSPTAKSPEAKSPEAKSPTAKSPTAKSPAAKSPAPKSPVEEVKPKAEAGAEKGEQKEKVEEEKKEAKESPKEEKAEKKEEKPKDVPEKKKAESPVKAESPVKEEVPAKPVKVSPEKEAKEEEKPQEKEKEKEKVEEVGGKEEGGLKESRKEDIAINGEVEGKEEEQETKEKGSGGEEEKGVVTNGLDVSPGDEKKGGDKSEEKVVVTKMVEKITSEGGDGATKYITKSVTVTQKVEEHEETFEEKLVSTKKVEKVTSHAIVKEVTQSD
B1: the “relative 32P incorporation into GST-head-rod domain (ratio NFH:NFM:NFL)” value with PKN worked out at 10. In addition, in test [1], the “extent of maximal phosphorylation by PKN per mol subunit of protein” value is “about 6 mol/mol”.

B2: amino acid sequence 3-135: truncated human PKN, amino acid sequence 3-135 in SEQ ID NO: 1, two-hybrid fusion (protein, UniProt Q16512 3-135, looked up, fragment)
chain: SDAVQSEPRSWSLLEQLGLAGADLAAPGVQQQLELERERLRREIRKELKLKEGAENLRRATTDLGRSLGPVELLLRGSSRRLDLLHQQLQELHAHVVLPDPAATHDGPQSPGAGGPTCSATNLSRVAGLEKQL
modifications: two-hybrid fusion
In the case of B2, the “interaction with RhoA^Val14 CLVL^− (β-galactosidase filter assay)” value with RhoA^Val14 CLVL^− was “interacted”.

B3: HuActSkl (423-653): human skeletal muscle type α-actinin fragment, GST fusion (protein)
chain: ILLQKDYESASLTEVRALLRKHEAFESDLAAHQDRVEQIAAIAQELNELDYHDAVNVNDRCQKICDQWDRLGTLTQKRREALERMEKLLETIDQLHLEFAKRAAPFNNWMEGAMEDLQDMFIVHSIEEIQSLITAHEQFKATLPEADGERQSIMAIQNEVEKVIQSYNIRISSSNPYSTVTMDELRTKWDKVKQLVPIRDQSLQEELARQHANERLRRQFAAQANAIGPWI
modifications: left off: a dimerising Fc or GST
notes: human skeletal muscle type α-actinin fragment, GST fusion
In the case of B3, in test [2], the “binding of in vitro translated PKNN2 to the fragment” value (“binding of in vitro translated PKNN2” below) is recorded as “strongly bound”.

B4: HuActSkl (486-607): human skeletal muscle type α-actinin fragment, spectrin-like repeat 3, GST fusion (protein, UniProt P35609 486-607, looked up, fragment)
chain: ICDQWDRLGTLTQKRREALERMEKLLETIDQLHLEFAKRAAPFNNWMEGAMEDLQDMFIVHSIEEIQSLITAHEQFKATLPEADGERQSIMAIQNEVEKVIQSYNIRISSSNPYSTVTMDEL
modifications: GST fusion
notes: human skeletal muscle type α-actinin fragment, spectrin-like repeat 3, GST fusion
B4: the “binding of in vitro translated PKNN2” value in test [2] was “strongly bound”.

B5: HuActSkl (653-837): human skeletal muscle type α-actinin fragment, GST fusion (protein)
chain: IQNKMEEIARSSIQITGALEDQMNQLKQYEHNIINYKNNIDKLEGDHQLIQEALVFDNKHTNYTMEHIRVGWELLLTTIARTINEVETQILTRDAKGITQEQMNEFRASFNHFDRRKNGLMDHEDFRACLISMGYDLGEAEFARIMTLVDPNGQGTVTFQSFIDFMTRETADTDTAEQVIASFRI
modifications: left off: a dimerising Fc or GST
notes: as for B3
In the case of B5, the “binding of in vitro translated PKNN2” value in test [2] is “strongly bound”.

B6: NFL: neurofilament subunit L; native bovine in b342, GST-head-rod domain fusion in b344 (protein, UniProt P02548 2-555, looked up)
Neurofilament light …: SSFSYEPYYSTSYKRRYVETPRVHISSVRSGYSTARSAYSSYSAPVSSSLSVRRSYSSSSGSLMPSLESLDLSQVAAISNDLKSIRTQEKAQLQDLNDRFASFIERVHELEQQNKVLEAELLVLRQKHSEPSRFRALYEQEIRDLRLAAEDATNEKQALQGEREGLEETLRNLQARYEEEVLSREDAEGRLMEARKGADEAALARAELEKRIDSLMDEIAFLKKVHEEEIAELQAQIQYAQISVEMDVSSKPDLSAALKDIRAQYEKLAAKNMQNAEEWFKSRFTVLTESAAKNTDAVRAAKDEVSESRRLLKAKTLEIEACRGMNEALEKQLQELEDKQNADISAMQDTINKLENELRTTKSEMARYLKEYQDLLNVKMALDIEIAAYRKLLEGEETRLSFTSVGSLTTGYTQSSQVFGRSAYGGLQTSSYLMSARSFPSYYTSHVQEEQIEVEETIEAAKAEEAKDEPPSEGEAEEEEKEKEEAEAEAEAEAEAEAEEEEGAQEEEAAKEDAEEAKEEEGGEGEEAEETKEAEEEEKKDEGAGEEQATKKKD
Take B6: the “relative 32P incorporation into GST-head-rod domain (ratio NFH:NFM:NFL)” value with PKN is 2. In addition, in test [1], the “extent of maximal phosphorylation by PKN per mol subunit of protein” value is “about 1 mol/mol”.

B7: HuActSkl (604-719): human skeletal muscle type α-actinin fragment, GST fusion (protein)
chain: MDELRTKWDKVKQLVPIRDQSLQEELARQHANERLRRQFAAQANAIGPWIQNKMEEIARSSIQITGALEDQMNQLKQYEHNIINYKNNIDKLEGDHQLIQEALVFDNKHTNYTMEH
modifications: left off: a dimerising Fc or GST
notes: as for B3
In the case of B7, the “binding of in vitro translated PKNN2” value in test [2] is recorded as “not”.

The record behind these values is patent US6660837B1, “Modified protein derived from protein kinase N” (Kirin Beer Kabushiki Kaisha, priority 1995, dated 2003).
